Test [1] has as its target PTK labeled tracer F-ADE(pY)LIPQQS. In words: binding curves as in Example 2 (FP), antibody at several labeling ratios.
The target is the same in test [2]. The test is described as follows: fluorescence polarization, direct binding curve: labeled antibody 10 nM to 9.8 pM against 1 nM tracer.

Consider “Anti p-Tyr antibody (anti-pY20) labeled with CS124-DTPA-Phe-NCS*Tb”, for which the fold variation of affinity for the tracer upon labeling in test [1] was below 2 fold. Take “Tb-chelate labeled PY72 (anti-phosphotyrosine) IgG antibody”: the EC50 in test [2] came out at 1 nM.
